Like-named read-outs stand apart in the source and are kept apart here.
Measured: degradation_or_half_life

LSD1: LSD1-3KR (K424, K432, K481)
decreases: ubiquitination at K424 | ubiquitination at K432 | ubiquitination at K481

— publication PMC10840093
